These results are taken from patent US20250179197A1 (DIAGONAL THERAPEUTICS, published 2025).

A word on the EC50 (read off the curve): it is the concentration giving half of the maximal effect. Lower therefore signals a more potent agent.

Holding throughout (assay): cell-based or functional assay
The target in assay [1] is T1, IL-18 receptor (IL-18Rα/IL-18Rβ) on human PBMCs (human, UniProt Q13478 19-541; O95256 20-599).
T1 sequence (looked up) 1: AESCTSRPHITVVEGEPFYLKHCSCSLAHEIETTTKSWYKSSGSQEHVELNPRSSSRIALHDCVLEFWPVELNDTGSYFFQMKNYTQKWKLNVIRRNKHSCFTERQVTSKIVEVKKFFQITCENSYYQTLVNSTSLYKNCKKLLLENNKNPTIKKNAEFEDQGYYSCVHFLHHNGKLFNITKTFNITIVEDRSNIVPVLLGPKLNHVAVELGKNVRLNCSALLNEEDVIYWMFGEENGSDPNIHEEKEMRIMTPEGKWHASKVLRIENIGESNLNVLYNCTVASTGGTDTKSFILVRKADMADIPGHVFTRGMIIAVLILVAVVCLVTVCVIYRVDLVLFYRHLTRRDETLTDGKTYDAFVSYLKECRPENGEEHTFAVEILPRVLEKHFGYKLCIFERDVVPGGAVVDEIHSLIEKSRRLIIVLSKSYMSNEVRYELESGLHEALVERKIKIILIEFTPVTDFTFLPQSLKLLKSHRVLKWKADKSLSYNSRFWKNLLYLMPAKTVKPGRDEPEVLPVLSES
T1 sequence (looked up) 2: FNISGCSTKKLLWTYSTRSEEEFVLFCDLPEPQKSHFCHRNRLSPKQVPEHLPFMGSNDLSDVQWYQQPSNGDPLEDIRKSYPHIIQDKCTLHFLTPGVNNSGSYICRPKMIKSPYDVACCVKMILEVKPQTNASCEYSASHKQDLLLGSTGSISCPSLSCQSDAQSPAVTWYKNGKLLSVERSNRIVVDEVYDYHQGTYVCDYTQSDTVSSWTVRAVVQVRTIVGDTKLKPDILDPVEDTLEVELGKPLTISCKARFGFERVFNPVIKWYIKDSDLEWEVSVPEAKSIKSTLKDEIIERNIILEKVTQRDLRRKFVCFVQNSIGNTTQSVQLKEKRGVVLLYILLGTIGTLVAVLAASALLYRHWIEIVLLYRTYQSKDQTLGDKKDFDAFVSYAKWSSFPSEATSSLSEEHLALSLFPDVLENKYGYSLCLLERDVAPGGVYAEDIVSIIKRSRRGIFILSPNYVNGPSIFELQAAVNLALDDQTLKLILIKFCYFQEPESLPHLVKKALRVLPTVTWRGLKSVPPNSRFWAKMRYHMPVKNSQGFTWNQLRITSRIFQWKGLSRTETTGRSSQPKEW

The target in assay [2] is T2, IL-18 receptor (IL-18Rα and IL-18Rβ) on HEK-Blue IL-18 cells (UniProt Q13478 19-541; O95256 20-599, limits assumed).
T2 sequence (looked up) 1: T1 sequence (looked up) 1
T2 sequence (looked up) 2: T1 sequence (looked up) 2

Assay [3] concerns the target T2, IL-18 receptor (IL-18Rα and IL-18Rβ) on …. This is another data set of the same source.

B1: DGL346 (bispecific antibody)
chain 1: EVQLVESGGGLIQPGGSLRLSCAASGSISSRDTMGWYRQAPGKGREMVSVISSSGNTNYADSVLGRFTISRDNAKNTVYLQMNALRAEDTAVYKCYAHRTYGVDYWGQGTLVTVSSGGGSQVQLVESGGGLVQPGGSLRLSCAASGRTFSSYTMGWFRQAPGKGREFVSAISWSAGRTYYADSVKGRFTISRDNAKNTVYLQMNALRAEDTAVYYCAAEEAPDWAPIDCSGYGCLSLYDYWGQGTLVTVSDKTHTCPPCPAPEAAGAPSVFLFPPKPKDTLYITREPEVTCVVVDVSHEDPEVKFNWYVDGVEVHNAKTKPREEQYNSTYRVVSVLTVLHQDWLNGKEYKCKVSNKALPAPIEKTISKAKGQPREPQVCTLPPSRDELTKNQVSLSCAVKGFYPSDIAVEWESNGQPENNYKTTPPVLDSDGSFFLVSKLTVDKSRWQQGNVFSCSVMHEALHNHYTQKSLSLSPG
chain 2: DKTHTCPPCPAPEAAGAPSVFLFPPKPKDTLYITREPEVTCVVVDVSHEDPEVKFNWYVDGVEVHNAKTKPREEQYNSTYRVVSVLTVLHQDWLNGKEYKCKVSNKALPAPIEKTISKAKGQPREPQVYTLPPCRDELTKNQVSLWCLVKGFYPSDIAVEWESNGQPENNYKTTPPVLDSDGSFFLYSKLTVDKSRWQQGNVFSCSVMHEALHNHYTQKSLSLSPG
As for B1, in assay [1], the “Calculated maximum induction of IFN-γ after 24 hours, donor 1” value (from here on “Calculated maximum induction … donor 1”) is 16000; the “Calculated maximum induction of IFN-γ after 24 hours, donor 2” value (“Calculated maximum induction … donor 2” for short) was 1700; the “Calculated maximum induction of IFN-γ after 24 hours, donor 3” value (“Calculated maximum induction … donor 3” for short) was 22000; the “Calculated maximum induction of IFN-γ after 24 hours, donor 4” value (“Calculated maximum induction … donor 4” for short) is 17000. In assay [1], the “Calculated maximum induction of IFN-γ after 24 hours, donor 5” value (“Calculated maximum induction … donor 5” for short) was 15000 and the “Calculated maximum induction of IFN-γ after 24 hours, donor 6” value (“Calculated maximum induction … donor 6” for short) is 3000. Further, in assay [2], the “HEK-Blue: Abs 405 at 100 nM” value worked out at 1.34 absorbance and the “HEK-Blue: Fold over background” value amounted to 7.2 fold.

B2: DGL620 (bispecific antibody)
chain 1: EVQLLESGGGLVQPGGSLRLSCAASGRTFSKHAMGWFRQAPGKGLEFVSAIDWSGGSTYYADSVKGRFTISRDNSKNTVYLQMNSLRAEDTAVYYCAADSYTDYAQLWLPELESEYDYWGQGTLVTVSSCPPCPAPEAAGAPSVFLFPPKPKDTLYITREPEVTCVVVDVSHEDPEVKFNWYVDGVEVHNAKTKPREEQYNSTYRVVSVLTVLHQDWLNGKEYKCKVSNKALPAPIEKTISKAKGQPREPQVCTLPPSRDELTKNQVSLSCAVKGFYPSDIAVEWESNGQPENNYKTTPPVLDSDGSFFLVSKLTVDKSRWQQGNVFSCSVMHEALHNHYTQKSLSLSPG
chain 2: QLQLLESGGGLVQAGGSLRLSCAASRSITFSHNVMGWYRQAPGKGRELVSSIGSGGSTNYVDSVKGRFTISRDNSKKTLYLQMNSLRAEDTAVYYCGVVVGVYRGSLGQGTLVTVSSCPPCPAPEAAGAPSVFLFPPKPKDTLYITREPEVTCVVVDVSHEDPEVKFNWYVDGVEVHNAKTKPREEQYNSTYRVVSVLTVLHQDWLNGKEYKCKVSNKALPAPIEKTISKAKGQPREPQVYTLPPCRDELTKNQVSLWCLVKGFYPSDIAVEWESNGQPENNYKTTPPVLDSDGSFFLYSKLTVDKSRWQQGNVFSCSVMHEALHNHYTQKSLSLSPG
In the case of B2, the “EC50 (read off the curve)” value in assay [3] was around 1 nM. In assay [1], the “Calculated maximum induction … donor 1” value was 16000; the “Calculated maximum induction … donor 2” value was 1300; the “Calculated maximum induction … donor 3” value is 22000; the “Calculated maximum induction … donor 4” value was 19000. Besides, in assay [1], the “Calculated maximum induction … donor 5” value was 15000 and the “Calculated maximum induction … donor 6” value was 2400. Moreover, in assay [2], the “HEK-Blue: Abs 405 at 100 nM” value was 1.87 absorbance and the “HEK-Blue: Fold over background” value stood at 10.1 fold.

B3: DGL336 (bispecific antibody, V domains shown)
V domain 1: EVQLLESGGGLVQPGGSLRLSCAASGRTFSKHAMGWFRQAPGKGLEFVSAIDWSGGSTYYADSVKGRFTISRDNSKNTVYLQMNSLRAEDTAVYYCAADSYTDYAQLWLPELESEYDYWGQGTLVTVSS
V domain 2: EVQLVESGGGLIQPGGSLRLSCAASGSISSRDTMGWYRQAPGKGREMVSVISSSGNTNYADSVLGRFTISRDNAKNTVYLQMNALRAEDTAVYKCYAHRTYGVDYWGQGTLVTVSS
For the molecule B3, in assay [1], the “Calculated maximum induction … donor 1” value was 13000; the “Calculated maximum induction … donor 2” value is 620; the “Calculated maximum induction … donor 3” value is 17000; the “Calculated maximum induction … donor 4” value was 9300. In addition, in assay [1], the “Calculated maximum induction … donor 5” value is 1500 and the “Calculated maximum induction … donor 6” value is 1300. In assay [2], the “HEK-Blue: Abs 405 at 100 nM” value turned out to be 0.9 absorbance and the “HEK-Blue: Fold over background” value is 4.9 fold.
